The labels stand for the following.
B1: library; numbered along this chain (parent)
chain: MRKPRAAVGSGHRKQAASQEGRQKHAKNNSQAKPSACDGLARQPEEVVLQASVSSYHLFRDVAEVTAFRGSLLSWYDQEKRDLPWRRRAEDEMDLDRRAYAVWVSEVMLQQTQVATVINYYTGWMQKWPTLQDLASASLEEVNQLWAGLGYYSRGRRLQEGARKVVEELGGHMPRTAETLQQLLPGVGRYTAGAIASIAFGQATGVVDGNVARVLCRVRAIGADPSSTLVSQQLWGLAQQLVDPARPGDFNQAAMELGATVCTPQRPLCSQCPVESLCRARQRVEQEQLLASGSLSGSPDVEECAPNTGQCHLCLPPSEPWDQTLGVVNFPRKASRKPPREESSATCVLEQPGALGAQILLVQRPNSGLLAGLWEFPSVTWEPSEQLQRKALLQELQRWAGPLPATHLRHLGEVVHTFSHIKLTYQVYGLALEGQTPVTTVPPGARWLTQEEFHTAAVSTAMKKVFRVYQGQQPGTCMGSKRSQVSSPCSRKKPRMGQQVLDNFFRSHISTDAHSLNSAAQ

This data set covers variants of B1. In words: 8OG:A repair function score (normalized; synonymous = 0, nonsense = -1) (normalized log-likelihood score); higher = more repair activity (WT-like). The conditions noted are these: with 8OG:A DNA repair reporter (GFP) in HEK-293 MUTYH KO cells. The gist of the method: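 Lentiviral MUTYH cDNA NNN codon-scan libraries in HEK-293 MUTYH knockout cells (10 pg/ml doxycycline) were co-transfected with an 8OG:A GFP repair reporter plus mCherry. At 72 h, viable mCherry+ cells were sorted into GFP+ (repair) and GFP− bins, three replicates per tile, then tile amplicons were sequenced. Per-tile Rosace fitness scores became a normalized repair function score anchored on synonymous and nonsense distributions. Synonymous medians were set to 0 and nonsense to -1; variants under 300 counts per million at the start were removed.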
For MRKPRAAVGSGHRKQAASQEGRQKHAKNNSQAKPSACDGLARQPEEVVLQASVSSYHLFRDVAEVTAFRGSLLSWYDQEKRDLPWRRRAEDEMDLDRRAYAVWVSEVMLQQTQVATVINYYTGWMQKWPTLQDLASASLEEVNQLWAGLGYYSRGRRLQEGARKVVEELGGHMPRTAETLQQLLPGVGRYTAGAIASIAFGQATGVVDGNVARVLCRVRAIGADPSSTLVSQQLWGLAQQLVDPARPGDFNQAAMELGATVCTPQRPLCSQCPVESLCRCRQRVEQEQLLASGSLSGSPDVEECAPNTGQCHLCLPPSEPWDQTLGVVNFPRKASRKPPREESSATCVLEQPGALGAQILLVQRPNSGLLAGLWEFPSVTWEPSEQLQRKALLQELQRWAGPLPATHLRHLGEVVHTFSHIKLTYQVYGLALEGQTPVTTVPPGARWLTQEEFHTAAVSTAMKKVFRVYQGQQPGTCMGSKRSQVSSPCSRKKPRMGQQVLDNFFRSHISTDAHSLNSAAQ [A280C], the “8OG:A repair function score” value was -0.398.

For MRKPRAAVGSGHRKQAASQEGRQKHAKNNSQAKPSACDGLARQPEEVVLQASVSSYHLFRDVAEVTAFRGSLLSWYDQEKRDLPWRRRAEDEMDLDRRAYAVWVSEVMLQQTQVATVINYYTGWMQKWPTLQDLASASLEEVNQLWAGLGYYSRGRRLQEGARKVVEELGGHMPRTAETLQQLLPGVGRYTAGAIASIAFGQATGVVDGNVARVLCRVRAIGADPSSTLVSQQLWGLAQQLVDPARPGDFNQAAMELGATVCTPQRPLCSQCPVESLCRFRQRVEQEQLLASGSLSGSPDVEECAPNTGQCHLCLPPSEPWDQTLGVVNFPRKASRKPPREESSATCVLEQPGALGAQILLVQRPNSGLLAGLWEFPSVTWEPSEQLQRKALLQELQRWAGPLPATHLRHLGEVVHTFSHIKLTYQVYGLALEGQTPVTTVPPGARWLTQEEFHTAAVSTAMKKVFRVYQGQQPGTCMGSKRSQVSSPCSRKKPRMGQQVLDNFFRSHISTDAHSLNSAAQ [A280F], the “8OG:A repair function score” value is -0.597.

For MRKPRAAVGSGHRKQAASQEGRQKHAKNNSQAKPSACDGLARQPEEVVLQASVSSYHLFRDVAEVTAFRGSLLSWYDQEKRDLPWRRRAEDEMDLDRRAYAVWVSEVMLQQTQVATVINYYTGWMQKWPTLQDLASASLEEVNQLWAGLGYYSRGRRLQEGARKVVEELGGHMPRTAETLQQLLPGVGRYTAGAIASIAFGQATGVVDGNVARVLCRVRAIGADPSSTLVSQQLWGLAQQLVDPARPGDFNQAAMELGATVCTPQRPLCSQCPVESLCRERQRVEQEQLLASGSLSGSPDVEECAPNTGQCHLCLPPSEPWDQTLGVVNFPRKASRKPPREESSATCVLEQPGALGAQILLVQRPNSGLLAGLWEFPSVTWEPSEQLQRKALLQELQRWAGPLPATHLRHLGEVVHTFSHIKLTYQVYGLALEGQTPVTTVPPGARWLTQEEFHTAAVSTAMKKVFRVYQGQQPGTCMGSKRSQVSSPCSRKKPRMGQQVLDNFFRSHISTDAHSLNSAAQ [A280E], the “8OG:A repair function score” value is -0.713.

As for MRKPRAAVGSGHRKQAASQEGRQKHAKNNSQAKPSACDGLARQPEEVVLQASVSSYHLFRDVAEVTAFRGSLLSWYDQEKRDLPWRRRAEDEMDLDRRAYAVWVSEVMLQQTQVATVINYYTGWMQKWPTLQDLASASLEEVNQLWAGLGYYSRGRRLQEGARKVVEELGGHMPRTAETLQQLLPGVGRYTAGAIASIAFGQATGVVDGNVARVLCRVRAIGADPSSTLVSQQLWGLAQQLVDPARPGDFNQAAMELGATVCTPQRPLCSQCPVESLCRDRQRVEQEQLLASGSLSGSPDVEECAPNTGQCHLCLPPSEPWDQTLGVVNFPRKASRKPPREESSATCVLEQPGALGAQILLVQRPNSGLLAGLWEFPSVTWEPSEQLQRKALLQELQRWAGPLPATHLRHLGEVVHTFSHIKLTYQVYGLALEGQTPVTTVPPGARWLTQEEFHTAAVSTAMKKVFRVYQGQQPGTCMGSKRSQVSSPCSRKKPRMGQQVLDNFFRSHISTDAHSLNSAAQ [A280D], the “8OG:A repair function score” value is -0.649.

With MRKPRAAVGSGHRKQAASQEGRQKHAKNNSQAKPSACDGLARQPEEVVLQASVSSYHLFRDVAEVTAFRGSLLSWYDQEKRDLPWRRRAEDEMDLDRRAYAVWVSEVMLQQTQVATVINYYTGWMQKWPTLQDLASASLEEVNQLWAGLGYYSRGRRLQEGARKVVEELGGHMPRTAETLQQLLPGVGRYTAGAIASIAFGQATGVVDGNVARVLCRVRAIGADPSSTLVSQQLWGLAQQLVDPARPGDFNQAAMELGATVCTPQRPLCSQCPVESLCYARQRVEQEQLLASGSLSGSPDVEECAPNTGQCHLCLPPSEPWDQTLGVVNFPRKASRKPPREESSATCVLEQPGALGAQILLVQRPNSGLLAGLWEFPSVTWEPSEQLQRKALLQELQRWAGPLPATHLRHLGEVVHTFSHIKLTYQVYGLALEGQTPVTTVPPGARWLTQEEFHTAAVSTAMKKVFRVYQGQQPGTCMGSKRSQVSSPCSRKKPRMGQQVLDNFFRSHISTDAHSLNSAAQ [R279Y], the “8OG:A repair function score” value was -0.151.

Take MRKPRAAVGSGHRKQAASQEGRQKHAKNNSQAKPSACDGLARQPEEVVLQASVSSYHLFRDVAEVTAFRGSLLSWYDQEKRDLPWRRRAEDEMDLDRRAYAVWVSEVMLQQTQVATVINYYTGWMQKWPTLQDLASASLEEVNQLWAGLGYYSRGRRLQEGARKVVEELGGHMPRTAETLQQLLPGVGRYTAGAIASIAFGQATGVVDGNVARVLCRVRAIGADPSSTLVSQQLWGLAQQLVDPARPGDFNQAAMELGATVCTPQRPLCSQCPVESLCWARQRVEQEQLLASGSLSGSPDVEECAPNTGQCHLCLPPSEPWDQTLGVVNFPRKASRKPPREESSATCVLEQPGALGAQILLVQRPNSGLLAGLWEFPSVTWEPSEQLQRKALLQELQRWAGPLPATHLRHLGEVVHTFSHIKLTYQVYGLALEGQTPVTTVPPGARWLTQEEFHTAAVSTAMKKVFRVYQGQQPGTCMGSKRSQVSSPCSRKKPRMGQQVLDNFFRSHISTDAHSLNSAAQ [R279W]: the “8OG:A repair function score” value is -0.139.

For the origin of these results see the supplement of paper PMC11908140.
